This note sets out measurements from paper PMC10926475, “A Detoxification Enzyme for Apis mellifera Newly Characterized by Recombinant Expression: 10-Formyl Tetrahydrofolate Dehydrogenase” (Frontiers in Insect Science, 2022).

Substrate in the data set: Nc1nc2c(c(=O)[nH]1)N[C@@H](CN(C=O)c1ccc(C(=O)N[C@@H](CCC(=O)O)C(=O)O)cc1)CN2
The data set is described as follows: purified protein. The format is biochemical, Apis mellifera. The following applies: dehydrogenase reaction, 200 μM NADP+, 100 mM β-mercaptoethanol, Tris/HCl pH 7.6 (pH of highest Vmax), 30°C.

B1: Amel_10-FTHFDH (10-formyl tetrahydrofolate dehydrogenase of A. mellifera) (Apis mellifera) (protein)
chain: AQLKVAIIGQSNFAAEVYKLLKLNGHQITGVFTIPDKGNREDPLAITAKIDNTPVFKIKSWRSKGVTLPEVLQLYKGIEVDLNVLPFCSQFIPMEVINHPRHRSICYHPSLLPRHRGASAITWTLIEGDDTAGFSIFWADDGLDTGPILLQRSCKVNSNDTLDSLYNNFLYPEGIKAMAEAVNLVAKGTAPMIPQTEEGATYDPMMNKKELQKIDWTKPAKQVHDFIRSLDSTPGAWTIIDGEEVRLFGSILWNDDQIPEHEIEVNVEDRLGIIHKDGLLIKAVDNHFVNVERMKVGTRTILASKFGQKSEDTIIEFTAEEQKMIESLKRTWEGILNMDVNEDTDFFACGAGSMDVIRLVEEVKDNLGVILQNIDVFMSPVFIQFVNKVVLTARGISTSKEIKYDAVEVQTNNMTLKFPRQLFINGEFVNGHGNPIDTINPHDETIICSVETGTVEDVDKAVKAAKKAFEEGEWSKISARERGVLLFKLADLMEEHKEELATIESIDSGAVYTLALKTHIGMSIETWRYFAGWCDKIQGSTIPITHARPNRNLTFTRKEPIGVCGLVTPWNYPLMMLSWKMAACLAAGNTVVMKPAQASPLTALKFAELTAKAGFPPGVVNIVPGNGTETGNAICEHLLIRKLGFTGSTQIGQSIMKSCANSNLKKVSLELGGKSPLVIFEDTDLQQAIKIAMSSVFFNKGENCIAAGRLFVEETIHDEFLQRIVEETKKISIGNPLDRSTAHGPQNHKAHLNKLLKFVERGVKEGAKLIYGGKRLDRPGWYFEPTIFTDVKDDMYIAKEESFGPIMVISKFSSKNIDDMIARANNTEYGLASGILTKDISKALRFAEKIEAGTVFINTYNKTDVAAPFGGFKMSGFGKDLGQEALNEYLKTKTITVEY
notes: complete ORF, N-terminal 6xHis tag kept (…... from primer), baculovirus / Hi5 insect cells, Ni-NTA, about 100 kDa
With B1, the Michaelis constant (Km) was determined as 9.596 µM.
